Experimental findings from the Human Domainome abundance scans (Beltran et al. 2025) are described below.

The labels stand for the following.
B1: Double-stranded RNA-binding protein Staufen homolog 1, residues 183 to 249; numbered along this chain, O95793 (parent)
chain: KSEISQVFEIALKRNLPVNFEVARESGPPHMKNFVTKVSVGEFVGEGEGKSKKISKKNAAIAVLEEL

± gives the uncertainty stated by the source.

In this data set the parent is B1. The experiment in a line: abundance fitness (aPCA) (normalised: wild type 0, dead -1); higher = more abundant; growth selection in yeast, the domain comes from the species named. Conditions: Homo sapiens.
For KSEISQVFEIALKRNLPVNFEVARESGPPHCKNFVTKVSVGEFVGEGEGKSKKISKKNAAIAVLEEL [M31C], the abundance fitness is 0.073 ± 0.047. For the variant KSEISQVFEIALKRNLPVNFEVARESGPPHKKNFVTKVSVGEFVGEGEGKSKKISKKNAAIAVLEEL [M31K], the abundance fitness came to 0.104 ± 0.053. The value for KSEISQVFEIALKRNLPVNFEVARESGPPHIKNFVTKVSVGEFVGEGEGKSKKISKKNAAIAVLEEL [M31I] was -0.12 ± 0.061. The value for KSEISQVFEIALKRNLPVNFEVARESGPPHHKNFVTKVSVGEFVGEGEGKSKKISKKNAAIAVLEEL [M31H] was 0.079 ± 0.076; that for KSEISQVFEIALKRNLPVNFEVARESGPPHFKNFVTKVSVGEFVGEGEGKSKKISKKNAAIAVLEEL [M31F] was -0.263 ± 0.059; that for KSEISQVFEIALKRNLPVNFEVARESGPPHRKNFVTKVSVGEFVGEGEGKSKKISKKNAAIAVLEEL [M31R] was 0.025 ± 0.029.

KSEISQVFEIALKRNLPVNFEVARESGPPHEKNFVTKVSVGEFVGEGEGKSKKISKKNAAIAVLEEL [M31E]: the abundance fitness is 0.103 ± 0.049. The value for KSEISQVFEIALKRNLPVNFEVARESGPPHWKNFVTKVSVGEFVGEGEGKSKKISKKNAAIAVLEEL [M31W] was -0.208 ± 0.038.

Consider KSEISQVFEIALKRNLPVNFEVARESGPPHQKNFVTKVSVGEFVGEGEGKSKKISKKNAAIAVLEEL [M31Q], for which the abundance fitness stood at 0.049 ± 0.044. With KSEISQVFEIALKRNLPVNFEVARESGPPHVKNFVTKVSVGEFVGEGEGKSKKISKKNAAIAVLEEL [M31V] the figure was -0.099 ± 0.042; with KSEISQVFEIALKRNLPVNFEVARESGPPHTKNFVTKVSVGEFVGEGEGKSKKISKKNAAIAVLEEL [M31T], 0.019 ± 0.044. Consider KSEISQVFEIALKRNLPVNFEVARESGPPHYKNFVTKVSVGEFVGEGEGKSKKISKKNAAIAVLEEL [M31Y], for which the abundance fitness was -0.089 ± 0.066. In the case of KSEISQVFEIALKRNLPVNFEVARESGPPHDKNFVTKVSVGEFVGEGEGKSKKISKKNAAIAVLEEL [M31D], the abundance fitness worked out at 0.199 ± 0.067.

Turning to KSEISQVFEIALKRNLPVNFEVARESGPPHGKNFVTKVSVGEFVGEGEGKSKKISKKNAAIAVLEEL [M31G], the abundance fitness is -0.013 ± 0.036. As for KSEISQVFEIALKRNLPVNFEVARESGPPHNKNFVTKVSVGEFVGEGEGKSKKISKKNAAIAVLEEL [M31N], the abundance fitness amounted to 0.083 ± 0.068. With KSEISQVFEIALKRNLPVNFEVARESGPPHSKNFVTKVSVGEFVGEGEGKSKKISKKNAAIAVLEEL [M31S] the figure was 0.113 ± 0.038. For KSEISQVFEIALKRNLPVNFEVARESGPPHPKNFVTKVSVGEFVGEGEGKSKKISKKNAAIAVLEEL [M31P], the abundance fitness was -0.132 ± 0.051. With KSEISQVFEIALKRNLPVNFEVARESGPPHLKNFVTKVSVGEFVGEGEGKSKKISKKNAAIAVLEEL [M31L] the figure was -0.098 ± 0.035; with KSEISQVFEIALKRNLPVNFEVARESGPHHMKNFVTKVSVGEFVGEGEGKSKKISKKNAAIAVLEEL [P29H], -0.105 ± 0.1; with KSEISQVFEIALKRNLPVNFEVARESGPAHMKNFVTKVSVGEFVGEGEGKSKKISKKNAAIAVLEEL [P29A], -0.005 ± 0.045. For the variant KSEISQVFEIALKRNLPVNFEVARESGPWHMKNFVTKVSVGEFVGEGEGKSKKISKKNAAIAVLEEL [P29W], the abundance fitness was -0.274 ± 0.042. With KSEISQVFEIALKRNLPVNFEVARESGPFHMKNFVTKVSVGEFVGEGEGKSKKISKKNAAIAVLEEL [P29F] the figure was -0.28 ± 0.082; with KSEISQVFEIALKRNLPVNFEVARESGPLHMKNFVTKVSVGEFVGEGEGKSKKISKKNAAIAVLEEL [P29L], -0.273 ± 0.038; with KSEISQVFEIALKRNLPVNFEVARESGPYHMKNFVTKVSVGEFVGEGEGKSKKISKKNAAIAVLEEL [P29Y], -0.259 ± 0.073. With KSEISQVFEIALKRNLPVNFEVARESGPTHMKNFVTKVSVGEFVGEGEGKSKKISKKNAAIAVLEEL [P29T] the figure was -0.111 ± 0.045. As for KSEISQVFEIALKRNLPVNFEVARESGPRHMKNFVTKVSVGEFVGEGEGKSKKISKKNAAIAVLEEL [P29R], the abundance fitness was -0.08 ± 0.032.

With KSEISQVFEIALKRNLPVNFEVARESGPSHMKNFVTKVSVGEFVGEGEGKSKKISKKNAAIAVLEEL [P29S], the abundance fitness was -0.04 ± 0.04. The value for KSEISQVFEIALKRNLPVNFEVARESGPVHMKNFVTKVSVGEFVGEGEGKSKKISKKNAAIAVLEEL [P29V] was -0.205 ± 0.045. With KSEISQVFEIALKRNLPVNFEVARESGPMHMKNFVTKVSVGEFVGEGEGKSKKISKKNAAIAVLEEL [P29M] the figure was -0.114 ± 0.046; with KSEISQVFEIALKRNLPVNFEVARESGPEHMKNFVTKVSVGEFVGEGEGKSKKISKKNAAIAVLEEL [P29E], -0.022 ± 0.056. As to KSEISQVFEIALKRNLPVNFEVARESGPKHMKNFVTKVSVGEFVGEGEGKSKKISKKNAAIAVLEEL [P29K], the abundance fitness is -0.061 ± 0.047.

As for KSEISQVFEIALKRNLPVNFEVARESGPDHMKNFVTKVSVGEFVGEGEGKSKKISKKNAAIAVLEEL [P29D], the abundance fitness was -0.051 ± 0.097.

On to KSEISQVFEIALKRNLPVNFEVARESGPCHMKNFVTKVSVGEFVGEGEGKSKKISKKNAAIAVLEEL [P29C], for which the abundance fitness was -0.198 ± 0.056. With KSEISQVFEIALKRNLPVNFEVARESGPGHMKNFVTKVSVGEFVGEGEGKSKKISKKNAAIAVLEEL [P29G] the figure was 0.052 ± 0.043; with KSEISQVFEIALKRNLPVNFEVARESGPIHMKNFVTKVSVGEFVGEGEGKSKKISKKNAAIAVLEEL [P29I], -0.205 ± 0.081.

For the variant KSEISQVFEIALKRNLPVNFEVARESGPPHMTNFVTKVSVGEFVGEGEGKSKKISKKNAAIAVLEEL [K32T], the abundance fitness is -0.118 ± 0.058. With KSEISQVFEIALKRNLPVNFEVARESGPPHMPNFVTKVSVGEFVGEGEGKSKKISKKNAAIAVLEEL [K32P] the figure was -0.099 ± 0.06. Regarding KSEISQVFEIALKRNLPVNFEVARESGPPHMANFVTKVSVGEFVGEGEGKSKKISKKNAAIAVLEEL [K32A], the abundance fitness was -0.037 ± 0.059. The value for KSEISQVFEIALKRNLPVNFEVARESGPPHMQNFVTKVSVGEFVGEGEGKSKKISKKNAAIAVLEEL [K32Q] was -0.129 ± 0.061; that for KSEISQVFEIALKRNLPVNFEVARESGPPHMNNFVTKVSVGEFVGEGEGKSKKISKKNAAIAVLEEL [K32N] was -0.192 ± 0.088.
